According to patent US20210380703A1:
Residue numbers refer to the chain shown, from its start.

B1: 372_E02 (antibody, V domains shown)
VH: EVQLLESGGGLVQPGGSLRLSCAASGFTFSSYGMNWVRQAPGKGLEWVASINYNGGYTSYADSVKGRFTISRDNSKNTLYLQMNSLRAEDTAVYYCARAANWHDTALDYWGQGTLVTVSS
VL: DIQMTQSPSSLSASVGDRVTITCRASQSIISYVNWYQQKPGKAPKLVIYAATSRASGVPSRFSGSGSGTDFTLTISSLQPEDFATYYCQQSYDLPLTFGGGTKVEIK
B2: 373_E11 (antibody, V domains shown)
VH: B1 VH with S30D, N35H
VL: B1 VL with I30V, V33L, L94S
B3: 374_B02 (antibody, V domains shown)
VH: B1 VH with S30D, G33S, N35H, S50G, G55S, A106H
VL: B1 VL with V33L, V47L, L94S
B4: 374_F03 (antibody, V domains shown)
VH: B1 VH with A106H
VL: B1 VL with L94T
B5: 375_A04 (antibody, V domains shown)
VH: B1 VH with S30D, S50G, T58K
VL: DIQMTQSPSSLSASVGDRVTITCRASQSILTYLNWYQQKPGKAPKLVIYYVNNLPSGVPSRFSGSGSGTDFTLTISSLQPEDFATYYCQQSYNSPLTFGGGTKVEIK
B6: 375_A11 (antibody, V domains shown)
VH: B1 VH with S31D, N35H, A49S, G55S, T58K
VL: B5 VL with L30V, T31S, V47L, N52T, P55A, N93D, S94N
B7: 375_F12 (antibody, V domains shown)
VH: B1 VH with S30D, N35H
VL: B1 VL with I30L, S31T, V33L, Y92D, D93E
B8: 375_H01 (antibody, V domains shown)
VH: B1 VH with S31D, G33S, S50G, G55S, A106H
VL: B1 VL with I30L, S31T, V33L, V47L, A55H, D93S, L94N
B9: 376_G02 (antibody, V domains shown)
VH: B1 VH with S31D, A49S, S50G
VL: B1 VL with I30S, S31R, V33L, R54L, L94N
B10: 365_C06 (antibody, V domains shown)
VH: B1 VH with S31D, N35H, A49S, S50G
VL: B1 VL with I30S, S31T, V47L, A51V, R54L, L94N
B11: 365_B12 (antibody, V domains shown)
VH: B1 VH with S31D, N35H, A49S, S50G, N101T, A106H
VL: B1 VL with I30S, S31T, V47L, A51V, R54L, A55H, L94N
B12: 365_D03 (antibody, V domains shown)
VH: B1 VH with S30D, S31D, G33S, N35H, T58K, N101T, A106H
VL: B1 VL with I30V, V33L, L94S
B13: 365_D08 (antibody, V domains shown)
VH: B1 VH with S30D, G33S, N35H, A49S, N101T, A106H
VL: B1 VL with S31T, V47L, L94T
B14: 365_F10 (antibody, V domains shown)
VH: B1 VH with S30D, S31D, N35H, A49S, S50G, N101T, A106H
VL: B1 VL with I30V, S31T, V47L, D93E
B15: 365_G06 (antibody, V domains shown)
VH: B1 VH with S30D, N35H, S50G, N101T, A106H
VL: B1 VL with I30L, V33L, V47L, R54L, Y92D, D93S, L94T
B16: 366_B09 (antibody, V domains shown)
VH: B1 VH with S31D, N35H, A49S, G55S, T58K, N101T, A106H
VL: B1 VL with I30L, S31T, V33L, A55H, L94S
B17: 365_D04 (antibody, V domains shown)
VH: B1 VH with S31D, N35H, S50G, T58K
VL: B1 VL with I30S, V33L, A51V
B18: 366_C05 (antibody, V domains shown)
VH: B1 VH with S30D, S31D, N35H, A49S, S59G, N101T, A106H
VL: B1 VL with V33L, L94S
B19: 366_E07 (antibody, V domains shown)
VH: B1 VH with S30D, N35H, S50G, N101T
VL: B1 VL with I30L, S31T, V33L, A55H, Y92D, D93N, L94S
B20: 366_G02 (antibody, V domains shown)
VH: B1 VH with S30D, N35H, A49S, N101T, A106H
VL: B1 VL with I30L, S31T, V33L, V47L, A55H, Y92D, L94N
B21: 366_H01 (antibody, V domains shown)
VH: B1 VH with S30D, S31D, G33S, N35H, S50N, N101T, A106H
VL: B1 VL with I30L, S31T, V33L, A51T, A55H, D93E, L94S
B22: 367_C06 (antibody, V domains shown)
VH: B1 VH with S30D, G33S, N35H, T58K, N101T, A106H
VL: B1 VL with I30L, S31T, V33L, R54L, A55H, L94T
B23: 367_C12 (antibody, V domains shown)
VH: B1 VH with N35H, A49S, S50G, N101T, A106H
VL: B1 VL with I30L, V47L, A51T, A55H, D93E, L94S
B24: 369_D06 (antibody, V domains shown)
VH: B1 VH with S30D, G33S, A49S, S50G, S59G, A99S, N101T, A106H
VL: B1 VL with I30L, S31T, V33L, V47L, D93E, L94T
B25: 367_A11 (antibody, V domains shown)
VH: B1 VH with N35H, A49S, S50G, A99S, N101T, A106H
VL: B1 VL with I30L, A51T, R54L, D93N, L94S
B26: 369_F04 (antibody, V domains shown)
VH: B1 VH with A49S, S50G, A99S, N101T, A106H
VL: B1 VL with V47L, A55H, L94N
B27: 369_A01 (antibody, V domains shown)
VH: B1 VH with S30D, G33S, A49S, S50G, G55S, T58K, S59G, A99S, N101T, A106H
VL: B1 VL with I30L, S31T, R54L, D93E
B28: 373_H12 (antibody, V domains shown)
VH: B1 VH with S31D, G33S, A49S, S50G, G55S, T58K, S59G, A99S, N101T, A106H
VL: B1 VL with I30L, S31T, V33L, V47L, D93N, L94S
B29: 376_C07 (antibody, V domains shown)
VH: B1 VH with G33S, A49S, S50G, G55S, T58K, S59G, A99S, N101T, A106H
VL: B1 VL with I30L, V47L, A55H
B30: 376_G01 (antibody, V domains shown)
VH: B1 VH with S30D, S31D, G33S, A49S, S50G, G55S, T58K, A99S, N101T, A106H
VL: B1 VL with I30L, A51V, D93E
B31: 373_F02 (antibody, V domains shown)
VH: B1 VH with S30D, G33S, A49S, S50G, G55S, T58K, A99S, N101T, A106H
VL: B1 VL with I30L, S31T, V33L, V47L, L94T
B32: 376_E09 (antibody, V domains shown)
VH: B1 VH with S30D, G33S, A49S, S50G, G55S, T58K, A99S, N101T, A106H
VL: B1 VL with I30L, S31T, V33L, V47L, A55H, L94T
B33: 365_H04 (antibody, V domains shown)
VH: B1 VH with S31D, A49S, S50G, G55S, T58K, A99S, N101T, A106H
VL: B1 VL with I30L, S31T, D93E, L94S
B34: 369_E04 (antibody, V domains shown)
VH: B1 VH with S31D, G33S, A49S, S50G, G55S, T58K, A99S, N101T, A106H
VL: B1 VL with I30L, D93S
B35: 374_B11 (antibody, V domains shown)
VH: B1 VH with G33S, A49S, S50G, G55S, T58K, A99S, N101T, A106H
VL: B1 VL with I30L, S31T
B36: 376_G11 (antibody, V domains shown)
VH: B1 VH with G33S, A49S, S50G, G55S, T58K, A99S, N101T, A106H
VL: B1 VL with I30V, S31T, R54L, D93N
B37: 374_E04 (antibody, V domains shown)
VH: B1 VH with G33S, A49S, S50G, G55S, T58K, A99S, N101T, A106H
VL: B1 VL with I30L, V33L, V47L, A51V, D93N, L94N
B38: 373_E08 (antibody, V domains shown)
VH: B1 VH with S30D, A49S, S50G, G55S, A99S, N101T, A106H
VL: B1 VL with I30V, V47L, A51V, D93E, L94S
B39: 367_E10 (antibody, V domains shown)
VH: B1 VH with N35H, A49S, S59G, N101T, A106H
VL: B1 VL with I30L, V47L, D93E
B40: 375_B10 (antibody, V domains shown)
VH: B1 VH with S30D, G33S, A49S, S50G, G55S, A99S, N101T, A106H
VL: B1 VL with I30L, V33L, V47L, A55H
B41: 365_E08 (antibody, V domains shown)
VH: B1 VH with S30D, G33S, A49S, S50G, G55S, A99S, N101T, A106H
VL: B1 VL with R54L
B42: 374_G02 (antibody, V domains shown)
VH: B1 VH with S30D, G33S, A49S, S50G, G55S, A99S, N101T, A106H
VL: B1 VL with I30L, S31T, V33L, V47L, T52S, R54L, A55Q, L94T
B43: 373_D09 (antibody, V domains shown)
VH: B1 VH with S30D, G33S, A49S, S50G, G55S, A99S, N101T, A106H
VL: B1 VL with I30L, S31T, V33L, A55H, D93E, L94N
B44: 371_B05 (antibody, V domains shown)
VH: B1 VH with G33S, A49S, S50G, G55S, A99S, N101T, A106H
VL: B1 VL with I30L, S31T, V33L, R54L, Y92D, D93E, L94T
B45: 376_H08 (antibody, V domains shown)
VH: B1 VH with S30D, A49S, S50N, T58K, S59G, A99S, N101T, A106H
VL: B1 VL with I30L, S31T, V33L, V47L, A55H, Y92D, D93S
B46: 367_G08 (antibody, V domains shown)
VH: B1 VH with S30D, A49S, S50N, T58K, S59G, A99S, N101T, A106H
VL: B1 VL with I30L, V33L, V47L, D93E, L94N
B47: 372_H03 (antibody, V domains shown)
VH: B1 VH with S30D, A49S, S50N, T58K, A99S, N101T, A106H
VL: B1 VL with S31T, V47L, R54L, D93N

Biological target: human Fc (human)
Test: ELISA, negative control

Binder | optical density
B1 | 0.431 OD
B2 | 0.243 OD
B3 | 0.179 OD
B4 | 0.185 OD
B5 | 0.177 OD
B6 | 0.176 OD
B7 | 0.175 OD
B8 | 0.216 OD
B9 | 0.285 OD
B10 | 0.318 OD
B11 | 0.307 OD
B12 | 0.346 OD
B13 | 0.35 OD
B14 | 0.386 OD
B15 | 0.32 OD
B16 | 0.283 OD
B17 | 0.316 OD
B18 | 0.269 OD
B19 | 0.262 OD
B20 | 0.357 OD
B21 | 0.384 OD
B22 | 0.29 OD
B23 | 0.31 OD
B24 | 0.324 OD

Binder | optical density
B25 | 0.3 OD
B26 | 0.369 OD
B27 | 0.456 OD
B28 | 0.162 OD
B29 | 0.265 OD
B30 | 0.227 OD
B31 | 0.175 OD
B32 | 0.246 OD
B33 | 0.371 OD
B34 | 0.387 OD
B35 | 0.17 OD
B36 | 0.285 OD
B37 | 0.169 OD
B38 | 0.165 OD
B39 | 0.271 OD
B40 | 0.17 OD
B41 | 0.298 OD
B42 | 0.175 OD
B43 | 0.16 OD
B44 | 0.246 OD
B45 | 0.274 OD
B46 | 0.33 OD
B47 | 0.437 OD
